Reference: paper PMC9396027, “Comparative transcriptome analysis of MDBK cells reveals that BoIFN-γ augmented host immune responses to bovine herpesvirus 1 infection” (Frontiers in Microbiology, 2022)

Biological target: the molecule itself
Test: SEC; Superdex 200 size exclusion column, refolded BoIFN-γ; peak mass compared with the monomer mass (14.2 kDa)

B1: Bovine interferon gamma (BoIFN-γ) (ligand, UniProt P07353 24-166, looked up)
chain: QGQFFREIENLKEYFNASSPDVAKGGPLFSEILKNWKDESDKKIIQSQIVSFYFKLFENLKDNQVIQRSMDIIKQDMFQKFLNGSSEKLEDFKKLIQIPVDDLQIQRKAINELIKVMNDLSPKSNLRKRKRSQNLFRGRRASM
notes: Bovine interferon gamma; synthesised gene encoding 122 amino acids, according to GenBank EU276066, nucleotides 24-390; monomer 14.2 kDa; Cloned into pET-21a(+); 122 amino acids is shorter than the mature protein as I recall it, so the construct is probably truncated; also called Bovine IFN-γ; bovine interferon gamma dimer protein
- stoichiometry N: 2
